Test results taken from patent US20220363757A1 (SYMPHOGEN A S, published 2022).

T1: human LAG-3 domain 1-2 Fc fusion, point mutation #59 Q117A (human, UniProt P18627 23-266)
T1 construct: not shown: human IgG1 Fc, AA P101-K330
T1 sequence: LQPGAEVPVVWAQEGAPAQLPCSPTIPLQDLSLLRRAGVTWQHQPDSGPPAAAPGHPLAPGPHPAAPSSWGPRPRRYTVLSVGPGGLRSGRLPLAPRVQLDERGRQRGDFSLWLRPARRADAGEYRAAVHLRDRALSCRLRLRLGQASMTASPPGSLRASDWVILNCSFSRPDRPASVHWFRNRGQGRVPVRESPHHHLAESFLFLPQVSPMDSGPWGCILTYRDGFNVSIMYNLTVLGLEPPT

T2: human LAG-3 domain 1-2 Fc fusion, point mutation #26 P79A (human, UniProt P18627 23-266)
T2 construct: not shown: human IgG1 Fc, AA P101-K330
T2 sequence: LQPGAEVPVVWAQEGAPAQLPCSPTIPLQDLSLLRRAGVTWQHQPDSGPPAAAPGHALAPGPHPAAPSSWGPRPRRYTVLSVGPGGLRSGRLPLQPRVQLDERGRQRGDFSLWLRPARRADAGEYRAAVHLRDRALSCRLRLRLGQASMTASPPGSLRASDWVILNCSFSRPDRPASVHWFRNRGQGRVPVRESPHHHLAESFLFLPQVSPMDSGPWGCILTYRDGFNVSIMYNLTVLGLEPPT

T3: human LAG-3 domain 1-2 Fc fusion, point mutation #37 S90A (human, UniProt P18627 23-266)
T3 construct: not shown: human IgG1 Fc, AA P101-K330
T3 sequence: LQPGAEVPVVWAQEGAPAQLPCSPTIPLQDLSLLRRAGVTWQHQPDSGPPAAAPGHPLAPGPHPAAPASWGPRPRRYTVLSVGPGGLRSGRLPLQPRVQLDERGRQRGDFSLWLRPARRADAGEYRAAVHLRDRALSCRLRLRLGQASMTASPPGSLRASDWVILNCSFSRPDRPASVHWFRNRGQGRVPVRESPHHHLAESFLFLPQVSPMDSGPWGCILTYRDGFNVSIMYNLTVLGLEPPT

T4: human LAG-3 domain 1-2 Fc fusion, point mutation #38 S91A (human, UniProt P18627 23-266)
T4 construct: not shown: human IgG1 Fc, AA P101-K330
T4 sequence: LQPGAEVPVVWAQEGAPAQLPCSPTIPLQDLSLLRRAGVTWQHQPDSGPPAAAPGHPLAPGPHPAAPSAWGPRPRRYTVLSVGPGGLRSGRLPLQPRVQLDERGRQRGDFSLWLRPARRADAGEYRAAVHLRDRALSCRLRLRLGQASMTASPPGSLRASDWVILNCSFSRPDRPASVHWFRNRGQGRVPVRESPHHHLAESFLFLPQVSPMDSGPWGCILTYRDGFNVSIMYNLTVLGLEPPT

T5: human LAG-3 domain 1-2 Fc fusion, point mutation #21 A74S (human, UniProt P18627 23-266)
T5 construct: not shown: human IgG1 Fc, AA P101-K330
T5 sequence: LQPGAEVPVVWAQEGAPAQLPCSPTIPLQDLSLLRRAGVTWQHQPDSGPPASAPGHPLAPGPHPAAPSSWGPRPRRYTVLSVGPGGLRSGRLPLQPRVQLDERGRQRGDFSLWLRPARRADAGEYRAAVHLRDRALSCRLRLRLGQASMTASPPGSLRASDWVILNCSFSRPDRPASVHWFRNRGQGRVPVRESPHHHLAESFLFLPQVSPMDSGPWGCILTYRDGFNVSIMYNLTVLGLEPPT

T6: human LAG-3 domain 1-2 Fc fusion, point mutation #30 G83A (human, UniProt P18627 23-266)
T6 construct: not shown: human IgG1 Fc, AA P101-K330
T6 sequence: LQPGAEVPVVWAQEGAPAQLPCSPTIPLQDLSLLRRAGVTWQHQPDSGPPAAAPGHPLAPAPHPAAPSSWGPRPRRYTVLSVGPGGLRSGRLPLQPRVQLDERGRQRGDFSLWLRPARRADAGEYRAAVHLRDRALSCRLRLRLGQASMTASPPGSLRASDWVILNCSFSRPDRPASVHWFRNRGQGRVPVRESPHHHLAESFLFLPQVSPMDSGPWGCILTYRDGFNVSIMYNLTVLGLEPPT

T7: human LAG-3 domain 1-2 Fc fusion, point mutation #34 A87S (human, UniProt P18627 23-266)
T7 construct: not shown: human IgG1 Fc, AA P101-K330
T7 sequence: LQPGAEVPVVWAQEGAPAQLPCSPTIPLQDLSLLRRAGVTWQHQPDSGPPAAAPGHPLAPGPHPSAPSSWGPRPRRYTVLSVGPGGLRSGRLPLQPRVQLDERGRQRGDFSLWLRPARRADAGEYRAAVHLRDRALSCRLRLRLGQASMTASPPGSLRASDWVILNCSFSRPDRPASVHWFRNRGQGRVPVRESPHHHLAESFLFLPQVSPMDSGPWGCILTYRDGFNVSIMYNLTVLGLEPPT

T8: human LAG-3 domain 1-2 Fc fusion, point mutation #71 D131A (human, UniProt P18627 23-266)
T8 construct: not shown: human IgG1 Fc, AA P101-K330
T8 sequence: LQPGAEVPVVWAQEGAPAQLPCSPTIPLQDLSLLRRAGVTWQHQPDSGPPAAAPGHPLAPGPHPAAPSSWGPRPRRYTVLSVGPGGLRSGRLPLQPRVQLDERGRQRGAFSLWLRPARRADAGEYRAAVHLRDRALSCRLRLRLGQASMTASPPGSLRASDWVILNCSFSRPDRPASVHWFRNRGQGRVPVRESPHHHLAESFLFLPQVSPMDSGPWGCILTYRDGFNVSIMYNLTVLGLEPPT

T9: human LAG-3 domain 1-2 Fc fusion, point mutation #23 P76A (human, UniProt P18627 23-266)
T9 construct: not shown: human IgG1 Fc, AA P101-K330
T9 sequence: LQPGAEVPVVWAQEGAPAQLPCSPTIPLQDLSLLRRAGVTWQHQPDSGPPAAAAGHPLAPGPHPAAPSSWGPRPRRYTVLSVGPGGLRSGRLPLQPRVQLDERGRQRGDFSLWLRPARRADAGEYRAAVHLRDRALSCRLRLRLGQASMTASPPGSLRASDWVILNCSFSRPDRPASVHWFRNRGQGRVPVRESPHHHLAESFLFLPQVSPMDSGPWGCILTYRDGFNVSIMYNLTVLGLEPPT


Legend:
Assay in all cases: SPR, Fab over captured mutant LAG-3-Fc;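 further: fc fusion variants captured on anti-human IgG Fc sensor, Fab injected with association then dissociation phases, KD obtained from Langmuir one-to-one fit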
[1] = biological target: T1, human LAG-3 domain 1-2 Fc fusion, point …
[2] = biological target: T2, human LAG-3 domain 1-2 Fc fusion, point …
[3] = biological target: T3, human LAG-3 domain 1-2 Fc fusion, point …
[4] = biological target: T4, human LAG-3 domain 1-2 Fc fusion, point …
[5] = biological target: T5, human LAG-3 domain 1-2 Fc fusion, point …
[6] = biological target: T6, human LAG-3 domain 1-2 Fc fusion, point …
[7] = biological target: T7, human LAG-3 domain 1-2 Fc fusion, point …
[8] = biological target: T8, human LAG-3 domain 1-2 Fc fusion, point …
[9] = biological target: T9, human LAG-3 domain 1-2 Fc fusion, point …

| Binder | KD mutant/KD wild type [1] [fold] | KD mutant/KD wild type [2] [fold] | KD mutant/KD wild type [3] [fold] | KD mutant/KD wild type [4] [fold] | KD mutant/KD wild type [5] [fold] | KD mutant/KD wild type [6] [fold] | KD mutant/KD wild type [7] [fold] | binding result [8] | KD mutant/KD wild type [9] [fold] | binding result [7] | KD mutant/KD wild type [8] [fold] |
| --- | --- | --- | --- | --- | --- | --- | --- | --- | --- | --- | --- |
| Fab fragment of antibody 15431 (Fab, V domains shown, not shown: a dimerising Fc or GST, monomeric Fab made by GingisKHAN digestion of the IgG1) VH: QVQLQQSGPGLVKPSQTLSLTCAISGDSVSSNSAAWNWIRQSPSRGLEWLGRTYYRSKWYNDYAVSVKSRITINPDTSKNQFSLQLNSVTPEDTAVYYCARDDDWNDFDYWGQGTLVTVSS VL: EIVLTQSPATLSLSPGERATLSCRASQSVSSYLAWYQQKPGQAPRLLIYDASNRATGIPARFSGSGSGTDFTLTISSLEPEDFAVYYCQQRSNWPLTFGGGTKVEIKR | 0.4 | 0.4 | 0.9 | 0.7 | 0.8 | 0.5 | 1 | no binding (tested: 300 nM) | 0.7 |  |  |
| Fab fragment of antibody 15011 (Fab, V domains shown, not shown: a dimerising Fc or GST, monomeric Fab made by GingisKHAN digestion of the IgG1) VH: EVQLLESGGGLVQPGGSLRLSCAASGFDFRSYAMMWVRQAPGKGLEWVGGINGEVGGSNTYYAPAVKGRATISRDNSKNTLYLQMNSLRAEDTAVYYCVKGAGACGICNDDIDAWGQGTLVTVSS VL: SYELTQDPAVSVALGQTVRITCSGAGSYAGSYYYGWHQQKPGQAPVTVIYDNDKRPSNIPDRFSGSSSGNTASLTITGAQAEDEADYYCGSTNDNDDGGLFGSGTKVTVLG | 0.7 | 0.6 | 0.9 | 0.8 | 0.8 | 0.7 | 1 |  | 0.8 |  | 0.6 |

Continued, values first:

| KD mutant/KD wild type [1] [fold] | KD mutant/KD wild type [2] [fold] | KD mutant/KD wild type [3] [fold] | KD mutant/KD wild type [4] [fold] | KD mutant/KD wild type [5] [fold] | KD mutant/KD wild type [6] [fold] | KD mutant/KD wild type [7] [fold] | binding result [8] | KD mutant/KD wild type [9] [fold] | binding result [7] | KD mutant/KD wild type [8] [fold] | Binder |
| --- | --- | --- | --- | --- | --- | --- | --- | --- | --- | --- | --- |
| 0.5 | 0.4 | 0.8 | 0.7 | 0.7 | 0.5 | 0.9 | no binding (tested: 300 nM) | 0.6 |  |  | Fab fragment of antibody 15572 (Fab, V domains shown, not shown: a dimerising Fc or GST, monomeric Fab made by GingisKHAN digestion of the IgG1) VH: QLQLQESGPGLVKPSETLSLTCTVSGDSISSSSYYWGWIRQPPGKGLEWIGSIFYSGNTYYNPSLKSRVTISVDTSKNQFSLKLSSVTAADTAVYYCAREDDFLTDYYGAFDIWGQGTMVTVSS VL: not shown |
| 0.8 | 0.9 | 0.6 | 5.3 | 1 | 1.1 |  |  | 1 | no binding (tested: 300 nM) | 4.2 | Fab fragment of antibody 15532 (Fab, V domains shown, not shown: a dimerising Fc or GST, monomeric Fab made by GingisKHAN digestion of the IgG1) VH: QVQLQQWGAGLLRPSETLSLTCAVYGESFSGYYWNWIRQPPGKGLEWIGEINHSGSTNYNPSLKSRVTISVDTSKTQFSLKLSSVTAADTAVYYCARGWDLLDWNDYWNEYWGQGTLVTVSS VL: EIVLTQSPATLSLSPGERATLSCRASQSVSSYLAWYQQKPGQAPRLLIYDASNRATGIPARFSGSGSGTDFTLTISSLEPEDFAVYYCQQRSNWPLTFGGGTKVEIKR |
